Test results as given in US20080064059A1.

Tests used:
[1] = target: glycomyoglobin containing β-GlcNAc-serine at position 4 (Gly4TAG mutant myoglobin, C-terminal His6 tag) (UniProt P02185); test: ELISA-like assay, 200 ng immobilized myoglobin, biotinylated BSII, streptavidin-alkaline phosphatase, absorbance at 405 nm; reference: wild-type myoglobin
[2] = target: glycomyoglobin containing GalNAc-α-threonine at position 4 (myoglobin 4TAG mutant, C-terminal 6x His tag) (UniProt P02185); test: enzyme-linked lectin-binding assay (ELLA), immobilized myoglobin samples, biotinylated lectin, streptavidin-alkaline phosphatase, pNPP at 405 nm; reference: equivalent concentrations of tyrosine-myoglobin
Chain of glycomyoglobin containing GalNAc-α-threonine at position 4 (myoglobin 4TAG mutant, C-terminal 6x His tag) (P02185 other isoform, or with tags, fused parts or gaps mutant): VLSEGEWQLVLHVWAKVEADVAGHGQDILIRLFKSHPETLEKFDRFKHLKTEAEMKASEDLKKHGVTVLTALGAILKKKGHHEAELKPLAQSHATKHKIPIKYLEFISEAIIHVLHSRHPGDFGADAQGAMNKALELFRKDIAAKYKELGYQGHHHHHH

Chain of Vicia Villosa lectin (VVL), biotinylated conjugate (P56625 whole entry): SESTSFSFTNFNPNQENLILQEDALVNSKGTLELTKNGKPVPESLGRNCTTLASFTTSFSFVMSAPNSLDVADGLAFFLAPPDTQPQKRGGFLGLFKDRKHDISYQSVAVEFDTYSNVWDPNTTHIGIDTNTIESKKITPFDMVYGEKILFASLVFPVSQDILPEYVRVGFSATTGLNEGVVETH
Chain of glycomyoglobin containing β-GlcNAc-serine at position 4 (Gly4TAG mutant myoglobin, C-terminal His6 tag) (P02185 other isoform, or with tags, fused parts or gaps mutant): as the sequence (P02185 other isoform, or with tags, fused parts or gaps mutant) above

fold signal versus wild-type myoglobin [1] [fold]	fold signal increase versus tyrosine-myoglobin [2] [fold]	Substance
> 200	–	Bandeiraea simplicifolia II (BSII) lectin, biotinylated
–	5	Dolichos Biflorus lectin (DBL), biotinylated conjugate (from UniProt P05045 23-275)
–	10	Vicia Villosa lectin (VVL), biotinylated conjugate (from UniProt P56625 1-185)
